Results as given in patent US20260028391A1 (HUMABS BIOMED, published 2026).
Positions count from the first letter of the chain named.

B1: MPK86 (antibody, V domains shown)
VH: EVQLVESGGGLVKPGGSLRLSCAASGFSISGYYMIWIRQAPGRGLEWISDISASSTYTDYADSVKGRFTISRDNGQNTVYLQMNNLRADDTALYYCATEQTPSPGPFDLWGQGTLVTVSS
VL: QSVVTQPPSVSGAPGQRVIISCSGRSSNIGAGYDVHWYQHFPGTSPKLLIYRNTNRPSGVPDRFSASTSATSASLAITGLQADDEADYYCQSYDRNLGGWVFGGGTKLTVL
notes: VH and VL only
B2: MPK126 (antibody, V domains shown)
VH: B1 VH with L18M, F27V, S28T, I29L, R43K, I70V, G75S, N85S, D89E, L93V
VL: QSVLTQPPSVSGAPGQRVTISCTGSSSNVGAGYDVHWYQQFPGTSPKLLIYRNTNRPSGVPDRFSGFKSGTSASLAITGLEAEDEADYYCQSYDRSLSGWVFGAGTKLTVL
notes: VH and VL only
B3: MPK102 (antibody, V domains shown)
VH: EVQLVESGGGLVKPRGSLRLSCAASGFTFSGYFMIWIRQAPGKGLEWVSYISGSSTYTNYADSVKGRFTISRDNGRNTLYLQMNSLRADDTAVYYCATEQTPSPGPFDLWGQGTLVTVSS
VL: QSVLTQPPSVSGAPGQRVTISCTGTSSNIGAGYDVHWYQQFPGTSPKLLIFRNTNRPSGVSDRFSGSKSGSSASLAIAGLQAEDESDYYCQSYDRGLDGWVFGGGTRLTVL
notes: VH and VL only
B4: MPK144 (antibody, V domains shown)
VH: EVQLVESGGGLVRPGGSLRLSCAASGFTFTGYYMMWIRQAPGKGLEWISDISSSSSYTNYADSVKGRFAISRDNAQNTLYLQMNSLRAEDTAVYYCATEQVPSPGPFDLWGQGTLVTVSS
VL: B2 VL with V29F, F67S, E81Q, S98T, A104G
notes: VH and VL only
B5: MPK108 (antibody, V domains shown)
VH: EVQLVESGGGLVRPGQSLRLSCTASGFSISGYFMIWVRQAPGKGLEWISYVSASSTYTNYADSVRGRFTTSRDNGQNSLFLQMDSLTAEDTGVYFCAREQTPSPGPFDSWGQGVLVTVSS
VL: QSVLTQPPSLSGAPGQRITISCTGTSSNIGAGYDVHWYQYLPGTAPKLVIYRNTNRPSGVSGRFSGSKSGTSASLAITGLQTEDEADYYCQSYDKKLDGWVFGGGTKLTVL
notes: VH and VL only
B6: MPK141 (antibody, V domains shown)
VH: EVQLVESGGGLVKPGGSLRLSCAASGFTISGYYMTWIRQAPGKGLEWISYISGSSSYTNYADSVKGRFTISRDNGRNSVYLQMNSLRADDTGVYYCAREETPSPGPFDSWGQGILVTVSS
VL: QSVLTQPPSVSGAPGQRIIISCIGSSSNIGTGYDVHWYQQLPGRAPKLLISRNTNRPSGIPDRFSGSKSGTSASLAITGLQADDEADYYCQSYDRGLDGWVFGGGTKLTVL
notes: VH and VL only
B7: MPK142-v2 (antibody, V domains shown)
VH: EVQLVESGGGLVEPGGSLRLSCAASGFTISGYGMSWVRQAPGKGLEWVSSISASSSYIYYGDAMKGRITISRDNGWNSMYLQMNSLRTEDTAVYYCATAPIEPPYFDLWGRGTLVTVSS
VL: DIQLTQTPTSLSASVGDRVTFTCRASQNIGFYLNWYQQKPGKAPRLLIYGASNLQSGVPSRFSGSGAGTDFSLTISSLQPEDFATYYCQQSFNTPRTFGQGTKVEIN
notes: VH and VL only
B8: MPK9 (antibody, V domains shown)
VH: EVQLVESGGGLVKPGGSLRLSCAASGFTISGYGMSWFRQAPGKGLEWVSSISASSSYIYYADSTKGRFTISRDNGKQSLYLQMNSLRAEDTAVYYCATSPIEPPYFDLWGRGTLVTVSS
VL: QSVLTQPPSVSGAPGQRVTISCTGSSSNIGAGYDVHWYQQLPGKAPKLLIYGNNNRPSGVPDRFSGSNSGASASLAITGLQAEDEADYFCQSYDRRLSGPVFGRGTKLTVL
notes: VH and VL only
B9: MPK127 (antibody, V domains shown)
VH: QVQLVISGGGLVKPGGSLRLSCAASGFRIDSFSLNWVRQAPGKGLEWLASVSASSSYIDYRDSVAGRFTISRDNAQNSLYLQMDTLRAEDTAVYYCARTNGYETGSFDVWGQGTLVTVAS
VL: B8 VL with Y51N, G52A, A71T, F89Y, R95K, R96T, P100Y, R104L, K107T, L108V
notes: VH and VL only
B10: MPK73 (antibody, V domains shown)
VH: EVQLVESGGGLVKPGGSLTLSCAASGFSISGYGMNWVRQAPGRGLEWVASISASSTYIYYADSMKGRFTISRDNGKTSLYLQMKSLRAEDTAVYYCARAPIEPPYFDLWGRGTLVTVSS
VL: B8 VL with S26N, Q40H, L48V, T78S, V101I, R104G
notes: VH and VL only
B11: MPK142-v1 (antibody, V domains shown)
VH: B7 VH
VL: B8 VL with L41F, L48V, S65A, G66A, D87A, R104G
notes: VH and VL only
B12: MPK18 (antibody, V domains shown)
VH: EVQLVESGGGLVKPGGSLRLSCAASGFTISGYYMIWIRQAPGKGLEWISYISGSSSYTNFGASVKGRFTISRDNGQNTVHLQMTNLRADDTALYYCATEQTPSPGPFDLWGQGTLVTVSS
VL: QSVVTQPPSVSGAPGQRVTISCSGTSSNIGAGYDVHWYQQFPGTSPKLLISRNFNRPSGVPARFSGSKSGSSASLAIAGLQAEDEADYYCQSYDRSLGGWVFGGGTKVTVL
notes: VH and VL only
B13: MPK129 (antibody, V domains shown)
VH: EVQLVESGGGLVKPGGSLRLSCEASGFSLSGYYMIWIRQAPGKGLEWISSISGSGNYIDYADSVKGRFTISRDNGHNTLYLQMNSLRVEDTAVYYCATEQTPSPGPFDHWGQGTLVTVSS
VL: B12 VL with S2T, S23T, A31T, S51Y, F54T, A62D, L97V, G98S, V108L
notes: VH and VL only
B14: MPK99 (antibody, V domains shown)
VH: B1 VH with S28T, A40S, R43K, T56S, N85S, D89E, L93V, T101V
VL: B12 VL with Q16L, A31R, T44Q, S51Y, F54T, A62D, S67F, K107R, V108L, T109I
notes: VH and VL only
B15: MPK132-v1 (antibody, V domains shown)
VH: B13 VH with F27I, G53S, G55S, D73H, H76Q, Y95F, D108E, H109L, T114I
VL: B12 VL with S21F, S23T, A31T, S51Y, F54T, A62D, L97V, G98S, V108L
notes: VH and VL only
B16: MPK67 (antibody, V domains shown)
VH: B12 VH with F60Y
VL: B12 VL with V4L, A82P
notes: VH and VL only
B17: MPK36-v3 (antibody, V domains shown)
VH: EVQLVESGGGLVKPGGSLRLSCAASFTISGYYMIWIRQAPGKGLEWISYISGSSTYTNYADSVKGRFTISRDNGQNTLYLHMTSLRADDTALYYCATEQTPSPGPFDLWGQGTLVTVSS
VL: B12 VL with S2T, S51Y, A62D, R95K, G98D
notes: VH and VL only
B18: MPK30-v1 (antibody, V domains shown)
VH: EVQLVESGGGLVKPGGSLRLSCAASGFTISGYYMIWIRQAPGKGLEWISFISASSSYINYADSVRGRFTISRDNGRSTVYLQMNSLRPEDTAVYYCATEQVPSPGPFDLWGQGTLVTVSS
VL: B3 VL with T44R, F51Y, S61P, S86A, G96S, R107T
notes: VH and VL only
B19: MPK10 (antibody, V domains shown)
VH: EVQLVQSGGGLVKPGGSLRLSCAASGFRFSGYFMIWIRQAPGKGLEWISFISGGSSYTNYADSVKGRFTISRDNVQNTLFLDMNSLRAEDTGVYFCATEQVPTPGPFDLWGQGSLVTVSS
VL: QSVLTQPPSVSGVPGQRVIISCTGSSSNIGAGYDVHWYQQFPGRSPTLLIYRNTNRPSGVPDRFSGFQSGSSASLAITGLQAEDEADYYCQSFDRTLDGWAFGGGTKVTVL
notes: VH and VL only
B20: MPK133 (antibody, V domains shown)
VH: QVQLVQSGGGLVKPGGSLRLSCAASEFSFSGYFMIWIRQAPGKGLEWISYISGSSTYTNYADSVKGRFTISRDNAQNTLYLEMNSLRAEDTGVYYCATEQVPSPGPFDLWGQGTLVTVSS
VL: B19 VL with V13A, I19T, F67S, F93Y, D98S
notes: VH and VL only
B21: MPK130 (antibody, V domains shown)
VH: EVQLVESGGGLVKPGGSLTLSCEASGFSISGYYMIWVRQAPGKGLEWVSSISASDTYIDYAVSVQGRFTISRHNTKNSLYLQMSSLRVEDTGVYYCTREKVPSPGPFDCWGQGTLVTVSS
VL: QSVLTQPPSVSGAPGQRITISCTGTSSNIGAGYDVHWYQHLPGAAPRLLIYVNTNRPSGVPDRFSGARSGTSASLAITGLQAEDEADYYCQSYDRSLGGWAFGEGTKVTVL
notes: VH and VL only
B22: MPK136 (antibody, V domains shown)
VH: B13 VH with D59N, I70V
VL: QVQLVQPPSVSGAPGQRVSISCTGTSSNIGTGYDVHWYQQFPGTSPKLLIYRNTNRPSGVPDRFSGSKSGSSASLAIAGLQAEDEADYYCQSYDRSVSGWVFGGGTKLTVL
notes: VH and VL only
B23: MPK92 (antibody, V domains shown)
VH: B13 VH with F27I, G53S, G55S, K65R, D73H, H76Q, Y95F, D108E, H109L, T114I
VL: QSVLTQPPSVSGAPGQRVTIFCTGTTSNIGTGYDVHWYQQFPGTSPKLLIYRNTNRPSGVPDRFSGSRSGSSASLAIAGLQAEDEADYYCQSFDRSVNGWIFGGGTKVTVL
notes: VH and VL only

Target: RSV fusion glycoprotein (RSV-F) (respiratory syncytial virus)
Experiment: SPR; F protein loaded on streptavidin sensors, mAb in solution
Experimental: Binding affinity of mAbs for RSV-F protein, MPV-F D280 protein, and MPV-F N280 F variant protein was assessed using surface plasmon resonance (SPR).

Row | Binder | Kd
1 | B1 | 0.001 nM
2 | B2 | 0.001 nM
3 | B3 | 0.096 nM
4 | B4 | 0.001 nM
5 | B5 | 0.58 nM
6 | B6 | 0.13 nM
7 | B7 | 16 nM
8 | B8 | 0.04 nM
9 | B9 | 1.7 nM
10 | B10 | 0.012 nM
11 | B11 | 100 nM
12 | B12 | 0.001 nM
13 | B13 | 0.083 nM
14 | B14 | 0.15 nM
15 | B15 | 0.47 nM
16 | B16 | 0.0059 nM
17 | B17 | 0.0056 nM
18 | B18 | 0.01 nM
19 | B19 | 0.012 nM
20 | B20 | 0.001 nM
21 | B21 | 0.016 nM
22 | B22 | 0.001 nM
23 | B23 | 0.098 nM
